Test results taken from patent EP4714976A1.

How the values were obtained:
[1] = biological target: extracellular domain of FGFR2c protein (Example 1) (UniProt P21802); assay: phage ELISA
[2] = biological target: extracellular domain of the FGFR2b protein (NP_075259.4) (UniProt P21802); assay: phage ELISA
Sequence of extracellular domain of the FGFR2b protein (NP_075259.4) (P21802 other isoform, or with tags, fused parts or gaps): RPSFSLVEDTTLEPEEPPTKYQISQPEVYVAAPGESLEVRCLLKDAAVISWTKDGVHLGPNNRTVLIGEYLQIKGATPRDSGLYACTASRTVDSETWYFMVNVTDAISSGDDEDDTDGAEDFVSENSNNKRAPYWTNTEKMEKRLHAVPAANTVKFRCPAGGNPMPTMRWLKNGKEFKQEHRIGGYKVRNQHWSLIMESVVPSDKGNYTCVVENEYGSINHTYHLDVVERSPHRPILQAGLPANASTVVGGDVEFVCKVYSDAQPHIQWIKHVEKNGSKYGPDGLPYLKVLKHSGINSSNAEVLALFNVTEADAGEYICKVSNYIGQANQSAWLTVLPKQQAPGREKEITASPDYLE

Sequence of extracellular domain of FGFR2c protein (Example 1) (P21802 22-377): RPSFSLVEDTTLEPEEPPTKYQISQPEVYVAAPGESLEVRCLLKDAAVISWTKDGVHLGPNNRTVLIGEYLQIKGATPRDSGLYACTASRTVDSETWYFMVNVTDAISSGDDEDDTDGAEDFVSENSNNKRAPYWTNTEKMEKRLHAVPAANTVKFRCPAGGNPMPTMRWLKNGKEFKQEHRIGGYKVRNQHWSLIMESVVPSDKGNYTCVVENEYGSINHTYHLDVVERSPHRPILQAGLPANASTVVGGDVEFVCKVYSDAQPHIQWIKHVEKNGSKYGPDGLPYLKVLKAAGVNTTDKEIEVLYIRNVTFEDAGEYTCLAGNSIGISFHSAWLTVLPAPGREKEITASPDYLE

OD (450 nm) value [1]: 0.045 | OD (450 nm) value [2]: 0.024
Substance: Negative control (Tables 1 and 2) (antibody)
